{
  "source": "paper PMC4190666",
  "target": "TAB1 (full length, 60-kDa isoform) (human (endogenous in primary CD4+ T cells)) (UniProt Q15750)",
  "sequence (Q15750 whole entry, canonical isoform)": "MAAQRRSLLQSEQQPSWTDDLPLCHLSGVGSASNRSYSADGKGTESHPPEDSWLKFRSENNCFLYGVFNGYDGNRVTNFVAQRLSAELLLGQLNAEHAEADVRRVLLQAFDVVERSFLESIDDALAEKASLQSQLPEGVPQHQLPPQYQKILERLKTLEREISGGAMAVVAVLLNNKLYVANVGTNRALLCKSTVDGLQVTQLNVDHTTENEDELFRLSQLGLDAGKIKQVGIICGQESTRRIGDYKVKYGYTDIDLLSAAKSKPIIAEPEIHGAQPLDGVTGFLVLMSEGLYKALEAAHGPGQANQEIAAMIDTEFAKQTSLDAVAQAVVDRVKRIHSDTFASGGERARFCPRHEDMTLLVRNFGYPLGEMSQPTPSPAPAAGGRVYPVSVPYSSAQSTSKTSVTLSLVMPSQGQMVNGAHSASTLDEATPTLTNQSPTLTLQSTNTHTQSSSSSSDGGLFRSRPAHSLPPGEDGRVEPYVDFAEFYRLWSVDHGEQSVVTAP",
  "test": "co-IP",
  "data": [
    {"substance": "p38 MAP kinase (total p38) (from UniProt Q16539 1-360) (enzyme)", "values": [
      {"measurement": "fold increase of p38 in TAB1 immunoprecipitates with A-769662 over DMSO control", "result": "2.5 to 3", "unit": "fold"}
    ]}
  ]
}
